Test results as given in article PMC3606321, “Identification and characterization of two distinct PPP1R2 isoforms in human spermatozoa” (BMC Cell Biology, 2013).

Key:
[1] = biological target: purified recombinant PPP1CC1 (UniProt P36873 1-323); test: cell-based or functional assay
[2] = biological target: purified recombinant PPP1CC2 (UniProt P36873-2 1-337); test: cell-based or functional assay
Chain of purified recombinant PPP1CC2 (P36873 other isoform, or with tags, fused parts or gaps): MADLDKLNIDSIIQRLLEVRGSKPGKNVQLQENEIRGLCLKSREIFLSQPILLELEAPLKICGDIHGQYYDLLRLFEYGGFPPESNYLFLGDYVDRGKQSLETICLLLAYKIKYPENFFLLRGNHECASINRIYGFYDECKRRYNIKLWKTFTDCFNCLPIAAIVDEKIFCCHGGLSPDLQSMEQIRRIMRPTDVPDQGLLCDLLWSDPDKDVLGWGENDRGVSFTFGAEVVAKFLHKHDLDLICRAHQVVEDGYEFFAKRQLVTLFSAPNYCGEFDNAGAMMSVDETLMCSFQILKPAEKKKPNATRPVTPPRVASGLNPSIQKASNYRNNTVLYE

Chain of purified recombinant PPP1CC1 (P36873 whole entry): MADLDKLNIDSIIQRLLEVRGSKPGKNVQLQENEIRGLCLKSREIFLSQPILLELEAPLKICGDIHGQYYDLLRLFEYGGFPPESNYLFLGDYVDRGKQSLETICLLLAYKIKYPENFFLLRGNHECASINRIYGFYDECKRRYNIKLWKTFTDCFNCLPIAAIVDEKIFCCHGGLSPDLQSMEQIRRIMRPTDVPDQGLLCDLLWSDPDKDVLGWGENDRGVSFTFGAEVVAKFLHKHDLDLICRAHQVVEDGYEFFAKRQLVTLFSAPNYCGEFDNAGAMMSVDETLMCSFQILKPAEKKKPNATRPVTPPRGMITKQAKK

B1: His-PPP1R2P3 (natural protein, human, UniProt Q6NXS1 1-205, looked up)
chain: MAASTASHRPIKGILKNKTSTTSSMVASAEQPRRSVDEELSKKSQKWDEINILATYHPADKGYGLMKIDEPSPPYHSMMGDDEDACRDTETTEAMAPDILAKKLAAAEGLEPKYRIQEQESSGEEDSDLSPEEREKKRQFEMRRKLHYNEGLNIKLARQLISKDLHDDDEDEEMLETADGESMNTEESNQGSTPSDQQQNKLRSS
- IC50 of inhibition of PPP1CC1 in the phosphorylase phosphatase assay ([32P]phosphorylase a as substrate) [1]: 730 pM
- IC50 of inhibition of PPP1CC2 in the phosphorylase phosphatase assay ([32P]phosphorylase a as substrate) [2]: 90 pM
